Test results: patent publication US20250163122A1, “COMPOSITIONS AND METHODS FOR TREATING AIRWAY MUCUS DYSFUNCTION” (BOARD OF REGENTS, THE UNIVERSITY OF TEXAS SYSTEM, priority 2022, published 2025)
One block for each binder: values may come before it. Bridges are numbered along the chain shown (N, C = ends). Where no end group is shown, it is not given here. [ ]: non-standard residue; d: D form. S5 = C=CCCC[C@](C)(N)C(=O)O

What was measured:
Syt2 C2B [1] = molecular target: T1, Syt2 C2B (Rattus norvegicus (Rat), UniProt P29101 272-422); test: bulk fluorescence anisotropy, Cy3-labeled peptide with varying concentrations of unlabeled C2B; Hill fit with coefficient constrained to one
T1 construct: also called C2B domain of Syt2

Syt1 C2B [2] = molecular target: T2, Syt1 C2B (Homo sapiens (Human), UniProt P21579 272-422); test: as above
T2 construct: Expressed as a GST fusion in E. coli and the tag cleaved with PreScission protease; also called C2B domain of Syt1; Syt1C2B, aa 271-421

Syt2 C2B [3] = molecular target: T1, Syt2 C2B; test: bulk fluorescence anisotropy, Cy3-labeled peptide with varying concentrations of C2B
Syt1 C2B [4] = molecular target: T2, Syt1 C2B; test: as above

T1 sequence (P29101 272-422 limits assumed): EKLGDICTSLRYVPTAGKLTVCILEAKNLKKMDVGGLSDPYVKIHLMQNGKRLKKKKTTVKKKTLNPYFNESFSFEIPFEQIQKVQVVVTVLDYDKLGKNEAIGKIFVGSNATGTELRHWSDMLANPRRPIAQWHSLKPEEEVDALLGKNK
T2 sequence (P21579 272-422 limits assumed): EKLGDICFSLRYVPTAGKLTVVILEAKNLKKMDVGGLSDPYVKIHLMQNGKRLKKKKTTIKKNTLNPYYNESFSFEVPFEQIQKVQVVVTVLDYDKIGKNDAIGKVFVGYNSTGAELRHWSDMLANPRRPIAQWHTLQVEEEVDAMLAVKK

Kd (Syt2 C2B [1]): 35 µM
Kd (Syt1 C2B [2]): 24 µM
B1: SP9-Cy3 (peptide)
peptide: Ac-EE[S5]KDA[S5]IR[S5]LVM[S5]DEQ
modifications: staple 10-14, 3-7; not fully specified (C-terminus); printed as Ac-EE(S5)KDA(S5)IR(S5)LVM(S5)DEQ-(C/Cy3Mal)-amide; also: Cy3 maleimide on C-terminal Cys
notes: Synthetic hydrocarbon-stapled peptide; This Cy3-labeled form was used in the bulk fluorescence anisotropy assay, diluted to 10 nM; also called Cy3 labeled SP9; Cy3-labeled SP9

binding result (Syt2 C2B [3]): no binding
binding result (Syt1 C2B [4]): no binding
B2: P0-Cy3 (peptide)
peptide: EESKDAGIRTLVMLDEQGEQLD-{C(Cy3 maleimide)-NH2}
notes: Labeled control peptide of the anisotropy assay; also called PO-Cy3; Cy3-labeled P0
